According to PMC11480506:
Each block holds one substance with its values, some of them ahead of it.

Legend:
[1] = target: IRE1α LD 312TLPL315-GSGS mutant (human) (UniProt O75460); assay: AUC; sedimentation velocity (AUC-SV), 25 µM protein
[2] = target: IRE1α LD 352LNYL355-GSGS mutant (human) (UniProt O75460); assay: as above
[3] = target: human IRE1α lumenal domain (IRE1α LD, aa 24-443) (human) (UniProt O75460); assay: fluorescence polarisation; fluorescence anisotropy of N-terminal fluorescein labeled peptide with IRE1α LD; n = 2 independent experiments
[4] = target: mCherry-IRE1α LD 312TLPL315-GSGS-10His (human) (UniProt O75460); assay: mass photometry; protein tethered by C-terminal 10His to supported lipid bilayers (99 mol% POPC, 1 mol% Ni-NTA lipids); 75 nM protein; 25 mM HEPES pH 7.3, 150 mM NaCl, 250 µM TCEP
[5] = target: mCherry-IRE1α LD 312TLPL315-GSGS-10His (human) (UniProt O75460); assay: mass photometry; protein tethered by C-terminal 10His to supported lipid bilayers (99 mol% POPC, 1 mol% Ni-NTA lipids); 100 nM protein; 25 mM HEPES pH 7.3, 150 mM NaCl, 250 µM TCEP
[6] = target: mCherry-IRE1α LD 352LNYL355-GSGS-10His (human) (UniProt O75460); assay: mass photometry; protein tethered by C-terminal 10His to supported lipid bilayers (99 mol% POPC, 1 mol% Ni-NTA lipids); 75 nM protein; 25 mM HEPES pH 7.3, 150 mM NaCl, 250 µM TCEP
[7] = target: mCherry-IRE1α LD 352LNYL355-GSGS-10His (human) (UniProt O75460); assay: mass photometry; protein tethered by C-terminal 10His to supported lipid bilayers (99 mol% POPC, 1 mol% Ni-NTA lipids); 100 nM protein; 25 mM HEPES pH 7.3, 150 mM NaCl, 250 µM TCEP
[8] = target: mCherry-IRE1α LD-10His (human) (UniProt O75460); assay: mass photometry; protein tethered by C-terminal 10His to supported lipid bilayers (99 mol% POPC, 1 mol% Ni-NTA lipids); 75 nM protein; 25 mM HEPES pH 7.3, 150 mM NaCl, 250 µM TCEP
[9] = target: mCherry-IRE1α LD-10His (human) (UniProt O75460); assay: mass photometry; protein tethered by C-terminal 10His to supported lipid bilayers (99 mol% POPC, 1 mol% Ni-NTA lipids); 100 nM protein; 25 mM HEPES pH 7.3, 150 mM NaCl, 250 µM TCEP

Sequence of UniProt O75460 (O75460 24-443): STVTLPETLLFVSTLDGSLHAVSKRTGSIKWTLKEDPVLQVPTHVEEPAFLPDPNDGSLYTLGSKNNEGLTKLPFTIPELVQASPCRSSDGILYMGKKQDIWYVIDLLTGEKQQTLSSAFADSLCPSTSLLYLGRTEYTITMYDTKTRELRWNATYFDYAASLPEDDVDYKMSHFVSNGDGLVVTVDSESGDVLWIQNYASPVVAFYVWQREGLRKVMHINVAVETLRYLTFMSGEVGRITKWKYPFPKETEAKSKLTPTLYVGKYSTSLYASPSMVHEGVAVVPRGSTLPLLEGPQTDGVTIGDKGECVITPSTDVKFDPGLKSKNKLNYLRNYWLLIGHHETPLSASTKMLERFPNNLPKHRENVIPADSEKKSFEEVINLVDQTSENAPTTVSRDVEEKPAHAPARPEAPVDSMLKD

- stoichiometry N [1]: 2
Substance: IRE1α LD 312TLPL315-GSGS mutant (from UniProt O75460 24-443) (domain or fragment)

- Kd [3]: 2 µM
Substance: MPZ1N-2X, model unfolded polypeptide (two MPZ1N 12mers in tandem), N-terminal fluorescein labeled

- stoichiometry N [6]: 2
- stoichiometry N [7]: 2
Substance: mCherry-IRE1α LD 352LNYL355-GSGS-10His (from UniProt O75460 24-443) (domain or fragment)

The next lines start with the substance.

Substance: IRE1α LD 352LNYL355-GSGS mutant (from UniProt O75460 24-443) (domain or fragment)
- stoichiometry N [2]: 2

Substance: mCherry-IRE1α LD 312TLPL315-GSGS-10His (from UniProt O75460 24-443) (domain or fragment)
- stoichiometry N [4]: 2
- stoichiometry N [5]: 2

Substance: mCherry-IRE1α LD-10His (from UniProt O75460 24-443) (domain or fragment)
- stoichiometry N [8]: 2
- stoichiometry N [9]: 2
